In US20240132587A1 (AstraZeneca / MedImmune, published 2024):

T1: human CLDN18.2 (human, UniProt P56856-2 1-261)
T1 construct: whole, on cells; also called CLDN18.2 wild-type
T1 sequence (looked up): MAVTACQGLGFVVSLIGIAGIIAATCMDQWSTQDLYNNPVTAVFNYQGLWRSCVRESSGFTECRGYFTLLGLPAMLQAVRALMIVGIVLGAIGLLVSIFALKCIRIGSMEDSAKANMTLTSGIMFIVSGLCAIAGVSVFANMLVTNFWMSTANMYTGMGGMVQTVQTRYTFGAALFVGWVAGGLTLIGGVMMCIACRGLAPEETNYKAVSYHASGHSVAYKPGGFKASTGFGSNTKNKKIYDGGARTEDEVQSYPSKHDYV

T2: mouse CLDN18.2 (mouse, UniProt P56857-3 1-264)
T2 construct: whole, on cells; also called murine CLDN18.2; mCLDN18.2
T2 sequence (looked up): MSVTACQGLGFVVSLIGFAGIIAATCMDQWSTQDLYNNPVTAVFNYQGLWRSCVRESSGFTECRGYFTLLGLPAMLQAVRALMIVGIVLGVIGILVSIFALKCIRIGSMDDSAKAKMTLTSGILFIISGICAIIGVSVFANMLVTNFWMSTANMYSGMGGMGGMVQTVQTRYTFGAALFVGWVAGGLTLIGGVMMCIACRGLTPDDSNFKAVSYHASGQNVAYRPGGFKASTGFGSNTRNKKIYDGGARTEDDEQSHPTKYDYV


Legend:
human CLDN18.2 [1] = target: T1, human CLDN18.2; assay: flow cytometry, IgG1 (0-533 nM) on HEK293 cells expressing human CLDN18.2
Method: (§1) Purified CLDN18.2 antibodies were then characterized for affinity and cross-reactivity by flow cytometry. Briefly. HEK293 cells expressing human, cynomolgous monkey, rat or mouse CLDN18.2 were resuspended in FACS Buffer, stained with varying antibody concentrations (0-533 nM), washed with FACS Buffer, stained with Alexa Fluor® 647 AffiniPure F(ab′)₂ Fragment Goat Anti-Human IgG, washed with FACS buffer and stained with FACS buffer supplemented with DAPI. Antibody binding to cells was assessed on a FACSymphony (BD) with gates for live/dead cells. Histograms of median fluorescence intensity (MFI) were used to calculate the geometric mean for each antibody at a given concentration (FlowJo, LLC). Geometric means were plotted in Prism (GraphPad) and used to calculated binding EC₅₀. Representative results are shown for 5 antibodies (ZP1I16_D05 IgG1, 008LY1_D04 IgG1, 08LYG_D08 IgG1, 008M0G_G03 IgG1, ZP1I18_B08 IgG1) and 1 negative control antibody (R347 IgG1) although 31 other prospective antibodies were also characterized (Table 1).

human CLDN18.2 [2] = target: T1, human CLDN18.2; assay: flow cytometry on HEK293 cells expressing human CLDN18.2 (FIG. 2A)
Source text: FIGS. 2A-2D show CLDN18.2 binding affinity and species cross-reactivity of select leads as determined by flow cytometry measurement in HEK293 cells expressing human (FIG. 2A), cyno (FIG. 2B), rat (FIG. 2C) or mouse (FIG. 2D) CLDN18.2. All leads bind human and cyno CLDN18.2 (99% homology), most leads bind rat CLDN18.2 (90% homology) and only one internal lead binds murine CLDN18.2 (89% homology. R347 is used as a negative control.
as §1

mouse CLDN18.2 = target: T2, mouse CLDN18.2; assay: flow cytometry, IgG1 (0-533 nM) on HEK293 cells expressing mouse CLDN18.2
Method: as §1

| Binder | binding result (human CLDN18.2 [1]) | binding result (human CLDN18.2 [2]) | binding result (mouse CLDN18.2) |
| --- | --- | --- | --- |
| ZP1I16_D05 IgG1 (antibody, V domains shown, Tested as IgG1 with lambda light chain (pOE-IgG1 (λLC))) VH: QVQLVQSGAEVKKPGSSVKVSCKASGGTFSSYAISWVRQAPGQGLEWMGGIIPIFGTANYAQKFQGRVTITADESTSTAYMELSSLRSEDTAVYYCARGFIRYGVFDYWGQGTLVTVSS VL: not shown | binds | – | – |
| 008LY1_D04 IgG1 (antibody, V domains shown, Tested as IgG1 with lambda light chain (pOE-IgG1 (λLC))) VH: QVQLVQSGAEVKKPGSSVKVSCKASGGTFSSYAISWVRQAPGQGLEWMGGIIPIFGTANYAQKFQGRVTITADESTSTAYMELSSLRSEDTAVYYCARGYVQYGYFDYWGQGTLVTVSS VL: not shown | – | binds | – |
| 008M0G_G03 IgG1 (antibody, V domains shown, Tested as IgG1 with lambda light chain (pOE-IgG1 (λLC))) VH: QVQLVQSGAEVKKPGSSVKVSCKASGGTFSSYAISWVRQAPGQGLEWMGGIIPIFGTANYAQKFQGRVTITADESTSTAYMELSSLRSEDTAVYYCARGYPRYGVFDYWGQGTLVTVSS VL: not shown | – | binds | – |
| ZP1I18_B08 IgG1 (antibody, V domains shown, Tested as IgG1 with lambda light chain (pOE-IgG1 (λLC))) VH: QVQLVQSGAEVKKPGSSVKVSCKASGGTFSSYAISWVRQAPGQGLEWMGGIIPIFGTANYAQKFQGRVTITADESTSTAYMELSSLRSEDTAVYYCARGFIRYGVFDYWGQGTLVTVSS VL: not shown | – | binds | – |
| 008LYG_D08 IgG1 (antibody, V domains shown, Tested as IgG1 with lambda light chain (pOE-IgG1 (λLC))) VH: QVQLVQSGAEVKKPGSSVKVSCKASGGTFSSYAISWVRQAPGQGLEWMGGIIPIFGTANYAQKFQGRVTITADESTSTAYMELSSLRSEDTAVYYCARGYQGMGVFDPWGQGTLVTVSS VL: not shown | – | binds | binds |
